Test results published in PMC9482650, “Quantitative fragmentomics allow affinity mapping of interactomes” (Nature Communications, 2022).

Legend:
Test in all cases: holdup assay
Design in all cases: key: below the threshold = too weak to quantify, mostly under pKd 3.1 to 4
[1] = target: T1, PARD3B_1, Q8TEW8
T1 sequence (Q8TEW8 196-299, limits assumed, looked up): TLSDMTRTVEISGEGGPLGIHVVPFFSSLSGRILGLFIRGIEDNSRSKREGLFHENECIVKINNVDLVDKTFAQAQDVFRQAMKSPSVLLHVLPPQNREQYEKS

[2] = target: MAGI1_2, Q96QZ7
[3] = target: CASK, O14936
[4] = target: FRMPD2_3, Q68DX3
[5] = target: T2, MPDZ_5, O75970
T2 sequence (O75970 695-796, limits assumed, looked up): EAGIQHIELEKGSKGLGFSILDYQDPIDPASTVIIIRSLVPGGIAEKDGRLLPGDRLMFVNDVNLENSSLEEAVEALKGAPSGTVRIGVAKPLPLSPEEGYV

[6] = target: T3, LNX2_2, Q8N448
T3 sequence (Q8N448 334-432, limits assumed, looked up): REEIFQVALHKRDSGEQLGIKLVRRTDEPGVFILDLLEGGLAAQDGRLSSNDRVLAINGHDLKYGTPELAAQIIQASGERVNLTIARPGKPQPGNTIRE

[7] = target: T4, APBA3_1, O96018
T4 sequence (O96018 389-490, limits assumed, looked up): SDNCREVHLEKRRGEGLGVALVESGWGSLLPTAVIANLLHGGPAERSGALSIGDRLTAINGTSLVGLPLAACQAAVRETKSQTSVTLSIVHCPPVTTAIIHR

[8] = target: T5, PDZD7_3, Q9H5P4
T5 sequence (Q9H5P4 857-944, limits assumed, looked up): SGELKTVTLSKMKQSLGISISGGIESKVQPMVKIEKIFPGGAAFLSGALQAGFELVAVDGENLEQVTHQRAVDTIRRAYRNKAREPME

[9] = target: IL16_1, Q14005
[10] = target: T6, PCLO, Q9Y6V0
T6 sequence (Q9Y6V0 4491-4600, limits assumed, looked up): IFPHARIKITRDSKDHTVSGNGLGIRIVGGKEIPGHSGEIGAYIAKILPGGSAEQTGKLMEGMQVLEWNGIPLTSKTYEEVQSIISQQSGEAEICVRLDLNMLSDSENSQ

[11] = target: LIMK2, P53671
[12] = target: DLG4_2, P78352
[13] = target: GRID2IP_1, A4D2P6
[14] = target: MAGI2_4, Q86UL8
[15] = target: T7, DVL3, Q92997
T7 sequence (Q92997 244-331, limits assumed, looked up): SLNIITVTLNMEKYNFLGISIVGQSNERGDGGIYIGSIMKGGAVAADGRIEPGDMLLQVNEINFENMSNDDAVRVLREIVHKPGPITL

[16] = target: T8, RADIL, Q96JH8
T8 sequence (Q96JH8 971-1071, limits assumed, looked up): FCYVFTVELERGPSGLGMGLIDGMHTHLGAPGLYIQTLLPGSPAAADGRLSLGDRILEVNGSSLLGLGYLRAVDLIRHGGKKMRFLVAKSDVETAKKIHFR

[17] = target: LNX1_1, Q8TBB1
[18] = target: PDZRN4_1, Q6ZMN7
[19] = target: T9, MPDZ_10, O75970
T9 sequence (O75970 1624-1722, limits assumed, looked up): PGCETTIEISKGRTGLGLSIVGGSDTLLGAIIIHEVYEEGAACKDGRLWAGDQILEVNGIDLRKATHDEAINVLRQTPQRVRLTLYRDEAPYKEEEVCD

[20] = target: Inadl_3, Q8NI35
[21] = target: T10, SHANK1, Q9Y566
T10 sequence (Q9Y566 658-767, limits assumed, looked up): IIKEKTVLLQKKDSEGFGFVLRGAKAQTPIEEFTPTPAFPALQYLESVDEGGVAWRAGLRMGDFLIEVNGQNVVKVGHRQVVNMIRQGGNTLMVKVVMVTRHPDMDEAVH

[22] = target: T11, SNTA1, Q13424
T11 sequence (Q13424 82-180, limits assumed, looked up): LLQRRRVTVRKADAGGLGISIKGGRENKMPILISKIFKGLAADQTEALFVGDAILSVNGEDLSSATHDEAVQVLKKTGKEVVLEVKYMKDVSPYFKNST

[23] = target: T12, GRIP1_3, Q9Y3R0
T12 sequence (Q9Y3R0 247-346, limits assumed, looked up): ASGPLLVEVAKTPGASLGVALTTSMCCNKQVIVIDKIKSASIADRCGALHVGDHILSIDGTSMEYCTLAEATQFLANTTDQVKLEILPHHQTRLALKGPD

[24] = target: T13, SNTG1, Q9NSN8
T13 sequence (Q9NSN8 52-150, limits assumed, looked up): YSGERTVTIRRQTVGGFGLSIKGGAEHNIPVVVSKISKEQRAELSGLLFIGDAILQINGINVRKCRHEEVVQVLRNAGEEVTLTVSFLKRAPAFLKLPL

[25] = plain residues with an end cap or a label only (N-terminal biotin on a linker: (peg)3)
[26] = plain residues with an end cap or a label only (N-terminal biotin on a linker: ado-ado)

Measured: pKd

Sequence of FRMPD2_3, Q68DX3 (Q68DX3 1073-1166): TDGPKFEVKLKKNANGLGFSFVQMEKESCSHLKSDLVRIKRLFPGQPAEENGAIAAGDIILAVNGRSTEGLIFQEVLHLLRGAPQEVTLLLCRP
Sequence of Inadl_3, Q8NI35 (Q8NI35 359-469): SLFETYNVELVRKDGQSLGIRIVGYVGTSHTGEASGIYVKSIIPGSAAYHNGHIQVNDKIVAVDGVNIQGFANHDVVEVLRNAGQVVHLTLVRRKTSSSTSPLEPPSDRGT
Sequence of IL16_1, Q14005 (Q14005 210-306): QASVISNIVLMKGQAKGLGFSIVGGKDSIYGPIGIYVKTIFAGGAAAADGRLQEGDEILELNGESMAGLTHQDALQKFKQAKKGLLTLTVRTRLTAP
Sequence of PDZRN4_1, Q6ZMN7 (Q6ZMN7 213-318): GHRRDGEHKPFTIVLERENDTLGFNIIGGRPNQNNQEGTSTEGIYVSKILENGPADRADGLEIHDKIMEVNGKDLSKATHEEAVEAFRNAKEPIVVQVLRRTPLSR
Sequence of CASK, O14936 (O14936 487-570): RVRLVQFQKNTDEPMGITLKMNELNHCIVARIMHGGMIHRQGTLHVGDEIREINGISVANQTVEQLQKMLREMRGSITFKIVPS
Sequence of MAGI2_4, Q86UL8 (Q86UL8 772-865): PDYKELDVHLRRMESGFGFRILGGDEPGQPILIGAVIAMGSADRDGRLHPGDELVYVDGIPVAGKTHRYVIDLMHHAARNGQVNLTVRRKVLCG
Sequence of GRID2IP_1, A4D2P6 (A4D2P6 1-87): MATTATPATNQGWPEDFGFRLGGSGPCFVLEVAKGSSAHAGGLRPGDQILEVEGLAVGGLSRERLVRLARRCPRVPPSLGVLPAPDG
Sequence of LNX1_1, Q8TBB1 (Q8TBB1 261-371): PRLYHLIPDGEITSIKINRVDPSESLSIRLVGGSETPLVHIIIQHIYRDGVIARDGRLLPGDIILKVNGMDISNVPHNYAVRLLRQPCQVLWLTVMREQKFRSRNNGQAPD
Sequence of MAGI1_2, Q96QZ7 (Q96QZ7 456-580): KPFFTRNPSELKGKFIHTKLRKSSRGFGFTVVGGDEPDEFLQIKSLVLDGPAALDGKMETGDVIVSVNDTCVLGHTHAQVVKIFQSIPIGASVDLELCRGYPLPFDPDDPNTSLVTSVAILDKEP
Sequence of DLG4_2, P78352 (P78352 155-259): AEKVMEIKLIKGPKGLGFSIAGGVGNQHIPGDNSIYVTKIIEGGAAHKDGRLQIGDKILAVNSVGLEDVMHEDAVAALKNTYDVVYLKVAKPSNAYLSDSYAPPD
Sequence of LIMK2, P53671 (P53671 143-248): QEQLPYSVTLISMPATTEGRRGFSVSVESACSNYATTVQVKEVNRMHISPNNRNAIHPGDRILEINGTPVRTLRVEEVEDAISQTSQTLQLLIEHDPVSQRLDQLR

B1: SARS-Cov2-3a, P0DTC3 (peptide)
chain: YDEPTTTTSVPL
4.12: [1]; [25]
below the threshold: [2]; [25] | [3]; [25] | [4]; [25] | [5]; [25] | [6]; [25] | [7]; [25] | [8]; [25] | [9]; [25] | [10]; [25] | [11]; [25] | [12]; [25] | [13]; [25] | [14]; [25] | [15]; [25] | [16]; [25] | [17]; [25] | [18]; [25] | [19]; [25] | [20]; [25] | [21]; [25] | [22]; [25] | [23]; [25] | [24]; [25]

B2: GJD2, Q9UKL4 (peptide)
chain: RTQSSDSAYV
4.65: [6]; [26]
3.71: [4]; [26]
3.48: [15]; [26]
below the threshold: [2]; [26] | [3]; [26] | [5]; [26] | [7]; [26] | [8]; [26] | [9]; [26] | [10]; [26] | [11]; [26] | [13]; [26] | [14]; [26] | [18]; [26] | [19]; [26] | [20]; [26] | [21]; [26] | [22]; [26] | [23]; [26] | [24]; [26]
3.9: [17]; [26]
4.63: [1]; [26]
3.65: [12]; [26]
4.43: [16]; [26]

B3: MAP7D2, Q96T17 (peptide)
chain: GQETPLNTFC
3.48: [12]; [26]
below the threshold: [1]; [26] | [2]; [26] | [3]; [26] | [4]; [26] | [5]; [26] | [6]; [26] | [7]; [26] | [9]; [26] | [10]; [26] | [11]; [26] | [13]; [26] | [14]; [26] | [15]; [26] | [16]; [26] | [17]; [26] | [18]; [26] | [19]; [26] | [20]; [26] | [21]; [26] | [22]; [26] | [23]; [26] | [24]; [26]
4.29: [8]; [26]

B4: JAM3, Q9BX67 (peptide)
chain: DFRHKSSFVI
4.26: [20]; [26]
below the threshold: [2]; [26] | [3]; [26] | [4]; [26] | [5]; [26] | [7]; [26] | [9]; [26] | [10]; [26] | [11]; [26] | [12]; [26] | [13]; [26] | [14]; [26] | [15]; [26] | [17]; [26] | [18]; [26] | [19]; [26] | [21]; [26] | [22]; [26] | [23]; [26] | [24]; [26]
4.15: [6]; [26]
4.85: [8]; [26]
5.03: [1]; [26]
3.96: [16]; [26]

B5: PKP4, Q99569 (peptide)
chain: QYPGSPDSWV
4.69: [6]; [26]
4.62: [12]; [26]
below the threshold: [4]; [26] | [10]; [26] | [11]; [26] | [13]; [26] | [21]; [26] | [23]; [26]
4.13: [9]; [26] | [22]; [26]
3.98: [17]; [26]
4.11: [8]; [26]
3.7: [19]; [26]
4.06: [18]; [26]
3.74: [3]; [26]
3.56: [1]; [26]
4.57: [24]; [26]
3.93: [15]; [26]
3.63: [7]; [26] | [20]; [26]
4.89: [16]; [26]
3.58: [5]; [26]
3.48: [2]; [26]
4.32: [14]; [26]

B6: ADRB1, P08588 (peptide)
chain: RPGFASESKV
4.28: [22]; [26]
3.88: [2]; [26]
4.36: [9]; [26]
below the threshold: [1]; [26] | [3]; [26] | [4]; [26] | [5]; [26] | [6]; [26] | [7]; [26] | [10]; [26] | [11]; [26] | [13]; [26] | [14]; [26] | [15]; [26] | [16]; [26] | [19]; [26] | [20]; [26] | [21]; [26] | [23]; [26]
4.22: [12]; [26]
3.69: [18]; [26]
4.59: [24]; [26]
3.71: [8]; [26]
3.7: [17]; [26]
